Paper PMC10499821

Biological target: Nsp3 ADRP (SARS-CoV-2) (UniProt P0DTD1)
Assay: fluorescence polarisation

B1: PARP10_(700–715) (peptide)
peptide: DGGTDGKAQLVVHSA
- Kd: 300 µM
